This note sets out measurements from patent publication US20250304690A1 (HANGZHOU VIROMAB BIOTECH, published 2025).

For experiment [1], the target named is T1, CD3 on Jurkat cells and on human T cells (human, UniProt P07766 23-207).
T1 construct: whole, on cells; also called CD3 end; CD3 antigen
Briefly: flow cytometry on Jurkat cells. (In flow cytometry, cells or beads pass a laser one at a time.)
Experimental: Jurkat cells were plated, washed with a FACS buffer, and centrifuged at 1200 rpm for 3-5 min. Then diluted antibodies with different concentrations were added at 100 L/well. The cells were incubated at 4° C. for 0.5 h, centrifuged at 1200 rpm for 3-5 min, and washed with a FACS buffer. Then a diluted goat anti-human IgG (FITC, Abcam/ab97224) antibody was added. The cells were incubated at 4° C. for 0.5 h, centrifuged at 1200 rpm for 3-5 min, washed with a FACS buffer, and resuspended in 50 μL of a FACs buffer, and assays were performed using a flow cytometer.

The target of a further experiment is CD3 on 293T-CD3 cells. Briefly: flow cytometry on 293T-CD3 cells.
The target in a further experiment is hCD3 (human CD3 antigen) (human, UniProt P07766 23-126). Briefly: ELISA, plate-coated hCD3.
In experiment [2] the target is T1, CD3 on Jurkat cells and on human T cells. Description: flow cytometry on Jurkat cells. This is another data set of the same source.
Experimental: (§1) Then diluted antibodies with different concentrations were added. The cells were incubated at 4° C. for 0.5 h, centrifuged at 1200 rpm for 3-5 min, and washed with a FACS buffer. Then a goat anti-human IgG secondary antibody (manufacturer: Abcam, ab98596) was added at 100 L/well. The cells were incubated at 4° C. for 0.5 h, centrifuged at 1200 rpm for 3-5 min, washed with a FACs buffer, and resuspended in 50 μL of a FACs buffer, and assays were performed using a flow cytometer.

Like-named read-outs stand apart in the source and are kept apart here.

Chain of hCD3 (human CD3 antigen) (P07766 23-126): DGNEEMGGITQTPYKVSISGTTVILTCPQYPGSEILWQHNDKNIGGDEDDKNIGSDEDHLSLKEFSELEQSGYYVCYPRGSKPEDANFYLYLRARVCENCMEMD
Chain of CD3 on 293T-CD3 cells (chain, as listed by the source): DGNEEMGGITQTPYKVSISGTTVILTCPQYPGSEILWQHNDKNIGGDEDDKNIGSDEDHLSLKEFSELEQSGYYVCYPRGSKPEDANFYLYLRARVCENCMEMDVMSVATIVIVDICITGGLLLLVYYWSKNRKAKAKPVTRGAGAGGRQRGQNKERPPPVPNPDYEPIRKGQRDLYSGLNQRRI
T1 sequence (P07766 23-207): as the sequence (chain, as listed by the source) above
Experimental for CD3 on 293T-CD3 cells: as §1
Experimental for hCD3 (human CD3 antigen): The activity of the prepared humanized antibodies was assessed by ELISA as follows: hCD3 (human CD3 antigen) was diluted to 0.5 g/mL using a coating solution and then added to a 96-well plate at 100 μL/well, and the plate was incubated overnight at 4° C. The plate was washed with PBST. Then 200 µL of a blocking solution was added to each well, and blocking was performed at a temperature of 37° C. for 2 h. The plate was washed with PBST. Then diluted antibodies (the initial concentration was 40 nM, and serial dilution was performed in a 1:6 ratio) were added at 100 L/well, and the plate was incubated at a temperature of 37° C. for 2 h. The plate was washed with PBST. Then an HRP-labeled goat anti-human IgG was added at 100 L/well, and the plate was incubated at 37° C. for 1 h. The plate was washed with PBST, and TMB was added at 100 L/well. Color development was performed at 37° C. for 10-20 min, and 50 µL of 2 M H₂SO₄ was added to each well to stop the reaction. Readings were taken at 450 nm.

B1: BK-D-09 (bispecific antibody, human IgG1, kappa)
heavy: QVQLVQSGAEVKKPGASVKVSCKASGYTFTNYYMKWVKQAPGQRLEWMGDLNPNNGDTFYNQKFKGRVTITVDKSASTAYMELSSLRSEDTAVYYCARTGRYEENAMDYWGQGTLVTVSSASTKGPSVFPLAPSSKSTSGGTAALGCLVKDYFPEPVTVSWNSGALTSGVHTFPAVLQSSGLYSLSSVVTVPSSSLGTQTYICNVNHKPSNTKVDKRVEPKSCDKTHTCPPCPAPEFEGGPSVFLFPPKPKDTLMISRTPEVTCVVVDVSHEDPEVKFNWYVDGVEVHNAKTKPREEQYNSTYRVVSVLTVLHQDWLNGKEYKCKVSNKALPASIEKTISKAKGQPREPQVYTLPPSREEMTKNQVSLTCLVKGFYPSDIAVEWESNGQPENNYKTTPPVLDSDGSFFLYSKLTVDKSRWQQGNVFSCSVMHEALHNHYTQKSLSLSPGKGGGGSGGGGSGGGGSQAVVTQEPSLTVSPGGTVTLTCRSSTGAVTTSNYANWVQQKPGQAPRGLIGGTNKRAPWTPARFSGSLLGGKAALTLSGAQTEDEAEYYCALWYSNLWVFGGGTKLTVLGGGGSGGGGSGGGGSEVQLVESGGGLVQPGGSLRLSCAASGFTFNTYAMNWVRQAPGKGLEWVARIRSKYNNYATYYADSVKDRFTISRDDSKNILYLQMNSLKTEDTAVYYCVRHGNFGNSYVSWFAYWGQGTLVTVSA
light: DIVLTQSPASLAVSPGQRATITCRASESVDSYGKSFMHWYQQKPGQPPKLLIYRASNLESGVPARFSGSGSRTDFTLTINPVEANDTANYYCQQNNEDPWTFGQGTKLEIKRTVAAPSVFIFPPSDEQLKSGTASVVCLLNNFYPREAKVQWKVDNALQSGNSQESVTEQDSKDSTYSLSSTLTLSKADYEKHKVYACEVTHQGLSSPVTKSFNRGEC
In general, EC50 refers to the concentration giving half of the maximal effect. Read a high EC50 as a need for much substance. As to B1, the response in experiment [1] was half-maximal at 97.8 nM (EC50).

B2: CD3 Ab07 (antibody, human IgG1, kappa, V domains shown)
VH: EVQLVESGGGLVQPGGSLRLSCAASGFTFNTYAMNWVRQAPGKGLEWVARIRSKYNNYATYYADSVKDRFTISRDDSKNILYLQMNSLKTEDTAVYYCVRHGNFGNSYVSWFAYWGQGTLVTVSA
VL: QAVVTQEPSLTVSPGGTVTLTCRSSTGAVTTSNYANWVQQKPGQAPRGLIGGTNKRAPWTPARFSGSLLGGKAALTLSGAQTEDEAEYYCALWYSNLWVFGGGTKLTVLR
notes: also called humanized anti-CD3 monoclonal antibody
B2: the EC50 worked out at 9.02 nM in the experiment with CD3 on 293T-CD3 cells, 0.0129 nM with hCD3 (human CD3 antigen) and 2.42 nM in experiment [2].

B3: CD3 Ab15 (antibody, human IgG1, kappa, V domains shown)
VH: EVQLVESGGGLVQPGGSLRLSCAASGFTFNTYAMNWVRQAPGKGLEWVARIRSKYNNYATYYADSVKDRFTISRDDSKNILYLQMNSLKTEDTAMYYCVRHGNFGNSYVSWFAYWGQGTLVTVSA
VL: QAVVTQEPSLTVSPGGTVTLTCRSSTGAVTTSNYANWVQEKPGQAPRGLIGGTNKRAPWVPARFSGSLLGDKAALTLSGAQTEDEAEYYCALWYSNLWVFGGGTKLTVLR
notes: as for B2
As for B3, the EC50 worked out at 3.48 nM with CD3 on 293T-CD3 cells, 0.0099 nM with hCD3 (human CD3 antigen) and 1.11 nM in experiment [2].

B4: CD3 Ab13 (antibody, human IgG1, kappa, V domains shown)
VH: EVQLVESGGGLVQPGGSLRLSCAASGFTFNTYAMNWVRQAPGKGLEWVARIRSKYNNYATYYADSVKDRFTISRDDSKNILYLQMNSLKTEDTAMYYCVRHGNFGNSYVSWFAYWGQGTLVTVSA
VL: QAVVTQEPSLTVSPGGTVTLTCRSSTGAVTTSNYANWVQQKPGQAPRGLIGGTNKRAPWTPARFSGSLLGGKAALTITGAQTEDEAEYYCALWYSNLWVFGGGTKLTVLR
notes: as for B2
B4: the EC50 with CD3 on 293T-CD3 cells amounted to 12.4 nM; with hCD3 (human CD3 antigen), 0.0099 nM; in experiment [2] it was 3.19 nM.

B5: CD3 Ab10 (antibody, human IgG1, kappa, V domains shown)
VH: EVQLVESGGGLVQPGGSLRLSCAASGFTFNTYAMNWVRQAPGKGLEWVARIRSKYNNYATYYADSVKDRFTISRDDSKNILYLQMNSLKTEDTAVYYCVRHGNFGNSYVSWFAYWGQGTLVTVSA
VL: QAVVTQEPSLTVSPGGTVTLTCRSSTGAVTTSNYANWVQEKPGQAPRGLIGGTNKRAPWVPARFSGSLLGDKAALTLSGAQTEDEAEYYCALWYSNLWVFGGGTKLTVLR
notes: as for B2
Consider B5, for which the results for the EC50 (in the experiment with CD3 on 293T-CD3 cells; with hCD3 (human CD3 antigen); in experiment [2]) were 2.44 nM, 0.002 nM and 0.784 nM, respectively.

B6: CD3 Ab09 (antibody, human IgG1, kappa, V domains shown)
VH: EVQLVESGGGLVQPGGSLRLSCAASGFTFNTYAMNWVRQAPGKGLEWVARIRSKYNNYATYYADSVKDRFTISRDDSKNILYLQMNSLKTEDTAVYYCVRHGNFGNSYVSWFAYWGQGTLVTVSA
VL: QAVVTQEPSLTVSPGGTVTLTCRSSTGAVTTSNYANWVQQKPGQAPRGLIGGTNKRAPWVPARFSGSLLGDKAALTLSGAQTEDEAEYYCALWYSNLWVFGGGTKLTVLR
notes: as for B2
Take B6: the EC50 in the experiment with CD3 on 293T-CD3 cells was 4.4 nM; with hCD3 (human CD3 antigen), 0.008 nM; in experiment [2], 0.862 nM.

B7: CD3 Ab02 (antibody, human IgG1, kappa, V domains shown)
VH: EVQLVESGGGLVQPGGSLRLSCAASGFTFNTYAMNWVRQAPGKGLEWVARIRSKYNNYATYYADSVKDRFTISRDDSKNSLYLQMNSLKTEDTAVYYCVRHGNFGNSYVSWFAYWGQGTLVTVSA
VL: QAVVTQEPSLTVSPGGTVTLTCRSSTGAVTTSNYANWVQQKPGQAPRGLIGGTNKRAPWTPARFSGSLLGGKAALTLSGAQTEDEAEYYCALWYSNLWVFGGGTKLTVLR
notes: as for B2
On to B7, for which the EC50 was 12.3 nM with CD3 on 293T-CD3 cells, 0.0117 nM in the experiment with hCD3 (human CD3 antigen) and 2.64 nM in experiment [2].

B8: CD3 Ab04 (antibody, human IgG1, kappa, V domains shown)
VH: EVQLVESGGGLVQPGGSLRLSCAASGFTFNTYAMNWVRQAPGKGLEWVARIRSKYNNYATYYADSVKDRFTISRDDSKNSLYLQMNSLKTEDTAVYYCVRHGNFGNSYVSWFAYWGQGTLVTVSA
VL: QAVVTQEPSLTVSPGGTVTLTCRSSTGAVTTSNYANWVQQKPGQAPRGLIGGTNKRAPWVPARFSGSLLGDKAALTLSGAQTEDEAEYYCALWYSNLWVFGGGTKLTVLR
notes: as for B2
Turning to B8, the results for the EC50 (with CD3 on 293T-CD3 cells; with hCD3 (human CD3 antigen); in experiment [2]) were 5.23 nM, 0.0068 nM and 1.18 nM, respectively.

B9: CD3 Ab11 (antibody, human IgG1, kappa, V domains shown)
VH: EVQLVESGGGLVQPGGSLRLSCAASGFTFNTYAMNWVRQAPGKGLEWVARIRSKYNNYATYYADSVKDRFTISRDDSKNILYLQMNSLKTEDTAMYYCVRHGNFGNSYVSWFAYWGQGTLVTVSA
VL: QAVVTQEPSLTVSPGGTVTLTCRSSTGAVTTSNYANWVQQKPGQAPRGLIGGTNKRAPWTPARFSGSLLGGKAALTLSGAQPEDEAEYYCALWYSNLWVFGGGTKLTVLR
notes: as for B2
With B9, the results for the EC50 (with CD3 on 293T-CD3 cells; in the experiment with hCD3 (human CD3 antigen); in experiment [2]) were 21.6 nM, 0.0118 nM and 4.45 nM, respectively.

B10: CD3 Ab08 (antibody, human IgG1, kappa, V domains shown)
VH: EVQLVESGGGLVQPGGSLRLSCAASGFTFNTYAMNWVRQAPGKGLEWVARIRSKYNNYATYYADSVKDRFTISRDDSKNILYLQMNSLKTEDTAVYYCVRHGNFGNSYVSWFAYWGQGTLVTVSA
VL: QAVVTQEPSLTVSPGGTVTLTCRSSTGAVTTSNYANWVQQKPGQAPRGLIGGTNKRAPWTPARFSGSLLGGKAALTITGAQTEDEAEYYCALWYSNLWVFGGGTKLTVLR
notes: as for B2
As to B10, the EC50 was determined as 4.24 nM with CD3 on 293T-CD3 cells, 0.0116 nM with hCD3 (human CD3 antigen) and 1.82 nM in experiment [2].

B11: CD3 Ab03 (antibody, human IgG1, kappa, V domains shown)
VH: EVQLVESGGGLVQPGGSLRLSCAASGFTFNTYAMNWVRQAPGKGLEWVARIRSKYNNYATYYADSVKDRFTISRDDSKNSLYLQMNSLKTEDTAVYYCVRHGNFGNSYVSWFAYWGQGTLVTVSA
VL: QAVVTQEPSLTVSPGGTVTLTCRSSTGAVTTSNYANWVQQKPGQAPRGLIGGTNKRAPWTPARFSGSLLGGKAALTITGAQTEDEAEYYCALWYSNLWVFGGGTKLTVLR
notes: as for B2
Take B11: the values for the EC50 (in the experiment with CD3 on 293T-CD3 cells; in the experiment with hCD3 (human CD3 antigen); in experiment [2]) were 10.1 nM, 0.0042 nM and 2.28 nM, respectively.

B12: CD3 Ab05 (antibody, human IgG1, kappa, V domains shown)
VH: EVQLVESGGGLVQPGGSLRLSCAASGFTFNTYAMNWVRQAPGKGLEWVARIRSKYNNYATYYADSVKDRFTISRDDSKNSLYLQMNSLKTEDTAVYYCVRHGNFGNSYVSWFAYWGQGTLVTVSA
VL: QAVVTQEPSLTVSPGGTVTLTCRSSTGAVTTSNYANWVQEKPGQAPRGLIGGTNKRAPWVPARFSGSLLGDKAALTLSGAQTEDEAEYYCALWYSNLWVFGGGTKLTVLR
notes: as for B2
As for B12, the EC50 with CD3 on 293T-CD3 cells stood at 4.27 nM; with hCD3 (human CD3 antigen) it was 0.0099 nM; in experiment [2] it was 1.02 nM.

B13: CD3 Ab12 (antibody, human IgG1, kappa, V domains shown)
VH: EVQLVESGGGLVQPGGSLRLSCAASGFTFNTYAMNWVRQAPGKGLEWVARIRSKYNNYATYYADSVKDRFTISRDDSKNILYLQMNSLKTEDTAMYYCVRHGNFGNSYVSWFAYWGQGTLVTVSA
VL: QAVVTQEPSLTVSPGGTVTLTCRSSTGAVTTSNYANWVQQKPGQAPRGLIGGTNKRAPWTPARFSGSLLGGKAALTLSGAQTEDEAEYYCALWYSNLWVFGGGTKLTVLR
notes: as for B2
With B13, the figures for the EC50 (in the experiment with CD3 on 293T-CD3 cells; with hCD3 (human CD3 antigen); in experiment [2]) were 15.8 nM, 0.0095 nM and 3.52 nM, respectively.

B14: CD3 Ab14 (antibody, human IgG1, kappa, V domains shown)
VH: EVQLVESGGGLVQPGGSLRLSCAASGFTFNTYAMNWVRQAPGKGLEWVARIRSKYNNYATYYADSVKDRFTISRDDSKNILYLQMNSLKTEDTAMYYCVRHGNFGNSYVSWFAYWGQGTLVTVSA
VL: QAVVTQEPSLTVSPGGTVTLTCRSSTGAVTTSNYANWVQQKPGQAPRGLIGGTNKRAPWVPARFSGSLLGDKAALTLSGAQTEDEAEYYCALWYSNLWVFGGGTKLTVLR
notes: as for B2
Turning to B14, the EC50 in the experiment with CD3 on 293T-CD3 cells is 5.73 nM; with hCD3 (human CD3 antigen) it was 0.0087 nM; in experiment [2], 1.14 nM.

B15: CD3 Ab06 (antibody, human IgG1, kappa, V domains shown)
VH: EVQLVESGGGLVQPGGSLRLSCAASGFTFNTYAMNWVRQAPGKGLEWVARIRSKYNNYATYYADSVKDRFTISRDDSKNILYLQMNSLKTEDTAVYYCVRHGNFGNSYVSWFAYWGQGTLVTVSA
VL: QAVVTQEPSLTVSPGGTVTLTCRSSTGAVTTSNYANWVQQKPGQAPRGLIGGTNKRAPWTPARFSGSLLGGKAALTLSGAQPEDEAEYYCALWYSNLWVFGGGTKLTVLR
notes: as for B2
As for B15, the EC50 in the experiment with CD3 on 293T-CD3 cells was 13 nM; in the experiment with hCD3 (human CD3 antigen), 0.0126 nM; in experiment [2] it was 3.31 nM.

B16: CD3 Ab01 (antibody, human IgG1, kappa, V domains shown)
VH: EVQLVESGGGLVQPGGSLRLSCAASGFTFNTYAMNWVRQAPGKGLEWVARIRSKYNNYATYYADSVKDRFTISRDDSKNSLYLQMNSLKTEDTAVYYCVRHGNFGNSYVSWFAYWGQGTLVTVSA
VL: QAVVTQEPSLTVSPGGTVTLTCRSSTGAVTTSNYANWVQQKPGQAPRGLIGGTNKRAPWTPARFSGSLLGGKAALTLSGAQPEDEAEYYCALWYSNLWVFGGGTKLTVLR
notes: as for B2
Take B16: the EC50 stood at 22.6 nM with CD3 on 293T-CD3 cells, 0.0096 nM with hCD3 (human CD3 antigen) and 3.3 nM in experiment [2].
